From PMC2923608, “Structural Insights into the Quinolone Resistance Mechanism of Mycobacterium tuberculosis DNA Gyrase” (PLoS ONE, 2010)

Key:
[1] = biological target: the molecule itself; test: AUC; sedimentation velocity, 20°C, 42000 rpm, 20 mM Tris pH 8; TopBK at 0.5, 1 and 4 mg/ml (18, 37 and 148 µM); the result is told for the concentration corresponding to the crystallization conditions; monomer and dimer
[2] = biological target: the molecule itself; test: AUC; sedimentation velocity, 20°C, 42000 rpm, 20 mM Tris pH 8; GA57BK at 1 mg/ml (17.5 µM)

B1: Toprim domain of DNA gyrase subunit B from Mycobacterium tuberculosis (TopBK) (domain or fragment)
chain: TDPRKSELYVVEGDSAGGSAKSGRDSMFQAILPLRGKIINVEKARIDRVLKNTEVQAIITALGTGIHDEFDIGKLRYHKIVLMADADVDGQHISTLLLTLLFRFMRPLIENGHVFLAQPPLYKLKWQRSDPEFAYSDRERDGLLEAGLKAGKKINKEDGIQRYKGLGEMDAKELWETTMDPSVRVLRQVTLDDAAAADELFSILMGEDVDARRSFITRNAKDVRFLDV
notes: DNA gyrase subunit B (GyrB), Mycobacterium tuberculosis, Toprim domain; the methods give residues 448-675, the results give 448-654 (the crystal model runs from T448 to E654); also called C-terminal GyrB domain
- stoichiometry N [1]: 2

B2: breakage-reunion domain of DNA gyrase subunit A from M. tuberculosis (GA57BK) (domain or fragment)
chain: MTDTTLPPDDSLDRIEPVDIEQEMQRSYIDYAMSVIVGRALPEVRDGLKPVHRRVLYAMFDSGFRPDRSHAKSARSVAETMGNYHPHGDASIYDSLVRMAQPWSLRYPLVDGQGNFGSPGNDPPAAMRYTEARLTPLAMEMLREIDEETVDFIPNYDGRVQEPTVLPSRFPNLLANGSGGIAVGMATNIPPHNLRELADAVFWALENHDADEEETLAAVMGRVKGPDFPTAGLIVGSQGTADAYKTGRGSIRMRGVVEVEEDSRGRTSLVITELPYQVNHDNFITSIAEQVRDGKLAGISNIEDQSSDRVGLRIVIEIKRDAVAKVVINNLYKHTQLQTSFGANMLAIVDGVPRTLRLDQLIRYYVDHQLDVIVRRTTYRLRKANERAHILRGLVKALDALDEVIALIRASETVDIARAGLIELLDIDEIQAQAILDMQLRRLAALERQRIIDDLAKIEAEIADLEDILAKPERQRGIVRDELAEIVDRHGDDRRTRIIAAD
notes: DNA gyrase subunit A (GyrA), Mycobacterium tuberculosis, breakage-reunion domain, residues 1-502, 57 kDa; also called entire N-terminal GyrA domain
- stoichiometry N [2]: 2
